Reference: paper PMC13638050 (PLOS Biology, 2026)
Residue numbers refer to the chain shown, from its start. Names and notes keep the numbering of the source.

T1: influenza B/Lee/1940 (B/Lee40) HA (influenza B virus B/Lee/1940, biotin on the BirA biotinylation site (BirA kit))
T1 construct: source: Sf9 (baculovirus), purified from the supernatant (Ni Sepharose excel, SEC)
T1 chain: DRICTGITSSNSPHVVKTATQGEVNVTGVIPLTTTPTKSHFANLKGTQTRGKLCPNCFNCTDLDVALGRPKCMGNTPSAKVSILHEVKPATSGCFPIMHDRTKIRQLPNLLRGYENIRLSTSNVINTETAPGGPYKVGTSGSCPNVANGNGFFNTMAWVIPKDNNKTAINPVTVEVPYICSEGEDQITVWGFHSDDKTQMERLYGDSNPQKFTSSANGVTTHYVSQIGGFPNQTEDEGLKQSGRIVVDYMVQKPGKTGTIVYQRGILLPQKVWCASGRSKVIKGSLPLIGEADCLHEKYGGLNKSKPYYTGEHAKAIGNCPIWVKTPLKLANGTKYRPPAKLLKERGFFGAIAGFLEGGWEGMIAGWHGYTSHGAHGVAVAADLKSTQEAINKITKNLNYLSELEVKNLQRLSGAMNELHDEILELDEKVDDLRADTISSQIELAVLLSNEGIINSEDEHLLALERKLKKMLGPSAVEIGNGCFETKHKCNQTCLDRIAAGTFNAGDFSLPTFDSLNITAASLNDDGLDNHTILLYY

B1: germline CR9114 Fab (inferred germline of CR9114) (Fab, V domains shown)
VH: QVQLVQSGAEVKKPGSSVKVSCKASGGTFSSYAISWVRQAPGQGLEWMGGIIPIFGTANYAQKFQGRVTITADKSTSTAYMELSSLRSEDTAVYYCARHGNYYYYYGMDVWGQGTTVTVS
VL: SYVLTQPPAVSGTPGQRVTISCSGSDSNIGRRSVNWYQQFPGTAPKLLIYSNDQRPSVVPDRFSGSKSGTSASLAISGLQSEDEAEYYCAAWDDSLKGAVFGGGTQLTVL
B2: somatic CR9114 Fab VH S24L (Fab, V domains shown)
VH: QVQLVQSGAEVKKPGSSVKVSCKLSGGTSNNYAISWVRQAPGQGLDWMGGISPIFGSTAYAQKFQGRVTISADIFSNTAYMELNSLTSEDTAVYFCARHGNYYYYSGMDVWGQGTTVTVSS
VL: B1 VL
B3: somatic CR9114 Fab VH S24F (Fab, V domains shown)
VH: B2 VH with L24F
VL: B1 VL
B4: somatic CR9114 Fab VH S52V (Fab, V domains shown)
VH: B2 VH with L24S, S52V
VL: B1 VL
B5: somatic CR9114 Fab VH I73W (Fab, V domains shown)
VH: B2 VH with L24S, I74W
VL: B1 VL
B6: somatic CR9114 Fab VH S52G (Fab, V domains shown)
VH: B2 VH with L24S, S52G
VL: B1 VL

How the values were obtained:
[1] = target: H1 stem (recombinant HA stem construct #4900 designed based on H1N1 A/Brisbane/59/2007 HA) (influenza A virus H1N1 …, biotin on the BirA biotinylation site (BirA kit)); assay: BLI; settings: both partners purified
[2] = target: T1, influenza B/Lee/1940 (B/Lee40) HA; assay: BLI; settings: both partners purified

| Binder | Kd [1] [nM] | binding result [2] |
| --- | --- | --- |
| B1 | 185 |  |
| B2 |  | no binding |
| B3 |  | no binding |
| B4 |  | no binding |
| B5 |  | no binding |
| B6 |  | no binding |
